According to patent US20180085476:

System: T1, promolecule containing protonectin (portion A), PR linker (X2) and PAR-1 exosite recognition sequence (portion Z), Cy3 on an N-terminal lysine
T1 sequence: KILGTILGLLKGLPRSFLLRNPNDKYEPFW

thrombin
KM (Michaelis-Menten, digestion followed by reverse phase HPLC): KM 200 nM | kcat/KM (Michaelis-Menten, digestion followed by reverse phase HPLC): kcat/KM=8 µM^-1 sec^-1
